Data: paper doi:10.1101/2020.10.04.325654
Where two headings read alike, the source gives them in different places.

Columns and labels:
Experiment in all cases: ELISA
[1] = biological target: His-tagged ASH/RhoGAP domain of OCRL (536aa-901aa) (human) (UniProt Q01968)
[2] = biological target: His-tagged ASH/RhoGAP domain of OCRL (536aa-901aa) (human) (UniProt Q01968); remark: listed apart in the source
[3] = biological target: His-tagged ASH/RhoGAP domain of OCRL (536aa-901aa) (human) (UniProt Q01968); remark: listed apart in the source

His-tagged ASH/RhoGAP domain of OCRL (536aa-901aa) (human), sequence (Q01968 536-901): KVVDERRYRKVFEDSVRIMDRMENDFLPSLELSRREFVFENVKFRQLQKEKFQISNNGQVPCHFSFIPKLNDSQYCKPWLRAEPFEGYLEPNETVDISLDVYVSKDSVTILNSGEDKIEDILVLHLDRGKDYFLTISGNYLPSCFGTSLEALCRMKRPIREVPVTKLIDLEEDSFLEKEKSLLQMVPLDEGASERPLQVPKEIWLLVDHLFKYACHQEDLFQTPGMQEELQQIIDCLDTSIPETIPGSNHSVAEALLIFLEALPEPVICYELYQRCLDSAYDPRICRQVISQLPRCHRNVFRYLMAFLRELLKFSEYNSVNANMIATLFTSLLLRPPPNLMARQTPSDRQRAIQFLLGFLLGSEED

| Substance | EC50 [1] [µM] | EC50 [2] [µM] | EC50 [3] [µM] |
| --- | --- | --- | --- |
| GST-SdhA-CBM2 (from UniProt Q6RCQ3 1029-1260) (domain or fragment) | 0.0874 | 0.0807 |  |
| GST-SdhA-CBM2A (from UniProt Q6RCQ3 1029-1080) (domain or fragment) |  | 0.0272 | 0.0081 |
